Reference: PMC13470446, “Microtubule-dependent regulation of chromatin dynamics by the Smc5/6 complex” (iScience, 2026)

Target: microtubule polymers (Polymerised alpha/beta-tubulin heterodimers (one repeat given). Source is not printed (assay 'as previously described' in a cited paper); commercial mammalian brain tubulin is assumed, porcine taken a)
Assay: co-sedimentation; microtubule pelleting assay; fraction of microtubule-bound Smc5 plotted against microtubule concentration, Kd by curve fitting to a hyperbola; 3 independent experiments
Details: both partners purified

Sequence of microtubule polymers (Polymerised alpha/beta-tubulin heterodimers (one repeat given). Source is not printed (assay 'as previously described' in a cited paper); commercial mammalian brain tubulin is assumed, porcine taken a) (chain, as listed by the source, chain 1 of 2): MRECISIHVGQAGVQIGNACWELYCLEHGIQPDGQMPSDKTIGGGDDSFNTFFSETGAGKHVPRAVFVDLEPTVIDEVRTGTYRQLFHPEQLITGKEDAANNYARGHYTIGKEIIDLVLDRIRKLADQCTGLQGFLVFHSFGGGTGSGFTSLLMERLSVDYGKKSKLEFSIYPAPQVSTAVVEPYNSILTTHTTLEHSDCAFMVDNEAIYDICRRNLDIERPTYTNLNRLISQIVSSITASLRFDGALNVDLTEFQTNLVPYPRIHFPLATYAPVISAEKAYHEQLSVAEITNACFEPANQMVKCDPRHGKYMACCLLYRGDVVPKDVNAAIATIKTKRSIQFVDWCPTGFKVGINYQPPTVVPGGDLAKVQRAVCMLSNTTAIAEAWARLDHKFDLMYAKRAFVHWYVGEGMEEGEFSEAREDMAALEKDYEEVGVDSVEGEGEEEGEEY
Sequence of microtubule polymers (Polymerised alpha/beta-tubulin heterodimers (one repeat given). Source is not printed (assay 'as previously described' in a cited paper); commercial mammalian brain tubulin is assumed, porcine taken a) (chain, as listed by the source, chain 2 of 2): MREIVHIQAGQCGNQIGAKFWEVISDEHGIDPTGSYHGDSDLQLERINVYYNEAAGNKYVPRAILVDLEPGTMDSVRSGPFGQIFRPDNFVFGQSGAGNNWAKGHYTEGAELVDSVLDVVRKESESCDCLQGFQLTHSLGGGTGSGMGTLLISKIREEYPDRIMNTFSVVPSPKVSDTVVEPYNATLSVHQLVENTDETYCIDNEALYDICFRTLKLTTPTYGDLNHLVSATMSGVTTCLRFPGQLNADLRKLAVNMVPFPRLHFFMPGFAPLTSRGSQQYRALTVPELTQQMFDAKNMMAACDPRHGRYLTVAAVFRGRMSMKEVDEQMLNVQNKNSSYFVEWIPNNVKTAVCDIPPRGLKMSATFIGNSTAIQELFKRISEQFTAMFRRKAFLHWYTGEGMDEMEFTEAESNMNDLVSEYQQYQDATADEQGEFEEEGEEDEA

B1: Smc5-2KE hinge domain (residues 215–885, K624E K631E) (domain or fragment, S. cerevisiae, UniProt Q08204 215-885, looked up)
chain: LRELQGNEQSLQKDLDFKKAKIVHLRQESDKLRKSVESLRDFQNKKGEIELHSQLLPYVKVKDHKEKLNIYKEEYERAKANLRAILKDKKPFANTKKTLENQVEELTEKCSLKTDEFLKAKEKINEIFEKLNTIRDEVIKKKNQNEYYRGRTKKLQATIISTKEDFLRSQEILAQTHLPEKSVFEDIDIKRKEIINKEGEIRDLISEIDAKANAINHEMRSIQRQAESKTKSLTTTDKIGILNQDQDLKEVRDAVLMVREHPEMKDKILEPPIMTVSAINAQFAAYLAQCVDYNTSKALTVVDSDSYKLFANPILDKFKVNLRELSSADTTPPVPAETVRDLGFEGYLSDFITGDKRVMKMLCQTSKIHTIPVSRRELTPAQIKKLITPRPNGKILFKRIIHGNRLVDIEQSAYGSEQVFPTDVSIKQTNFYQGSIMSNEQKIRIENEIINLKNEYNDRKSTLDALSNQKSGYRHELSELASKNDDINREAHQLNEIRKKYTMRKSTIETLREKLDQLKREARKDVSQKIKDIDDQIQQLLLKQRHLLSKMASSMKSLKNCQKELISTQILQFEAQNMDVSMNDVIGFFNEREADLKSQYEDKKKFVKEMRDTPEFQSWMREIRSYDQDTKEKLNKVAEKYEEEGNFNLSFVQDVLDKLESEIAMVNHDES
notes: Smc5, S. cerevisiae, hinge domain construct, residues 215-885, with K624E and K631E; source: purified
- fold reduction in binding affinity against wild-type Smc5: 3 fold
